# In article PMC9482650, “Quantitative fragmentomics allow affinity mapping of interactomes” (Nature Communications, 2022):
# T1: PDZD2_2, O15018
# T1 sequence (O15018 329-429, limits assumed, looked up): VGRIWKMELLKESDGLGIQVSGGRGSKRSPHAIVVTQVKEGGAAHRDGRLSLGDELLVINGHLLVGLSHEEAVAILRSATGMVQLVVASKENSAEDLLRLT
# T2: MPP6, Q9NZW5
# T2 sequence (Q9NZW5 125-219, limits assumed, looked up): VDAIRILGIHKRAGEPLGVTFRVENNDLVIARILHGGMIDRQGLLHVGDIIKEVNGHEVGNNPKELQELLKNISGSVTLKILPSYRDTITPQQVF
# T3: SNTB1, Q13884
# T3 sequence (Q13884 107-205, limits assumed, looked up): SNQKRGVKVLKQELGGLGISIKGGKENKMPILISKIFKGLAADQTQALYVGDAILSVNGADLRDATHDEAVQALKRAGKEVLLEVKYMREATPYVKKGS
# T4: PTPN13_1, Q12923
# T4 sequence (Q12923 1088-1188, limits assumed, looked up): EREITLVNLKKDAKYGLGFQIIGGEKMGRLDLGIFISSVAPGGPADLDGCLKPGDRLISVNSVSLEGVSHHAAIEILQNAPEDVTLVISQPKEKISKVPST
# T5: ARHGEF11, O15085
# T5 sequence (O15085 42-136, limits assumed, looked up): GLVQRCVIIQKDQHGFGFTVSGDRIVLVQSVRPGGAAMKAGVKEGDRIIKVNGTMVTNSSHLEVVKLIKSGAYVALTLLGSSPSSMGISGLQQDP
# T6: RAPGEF6, Q8TEU7
# T6 sequence (Q8TEU7 525-625, limits assumed, looked up): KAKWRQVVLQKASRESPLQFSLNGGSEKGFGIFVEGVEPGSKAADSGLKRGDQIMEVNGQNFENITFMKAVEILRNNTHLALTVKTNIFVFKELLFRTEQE
# T7: LRRC7, Q96NW7
# T7 sequence (Q96NW7 1440-1537, limits assumed, looked up): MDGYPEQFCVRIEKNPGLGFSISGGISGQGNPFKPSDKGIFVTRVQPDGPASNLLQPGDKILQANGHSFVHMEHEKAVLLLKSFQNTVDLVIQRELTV
# T8: APBA2_1, Q99767
# T8 sequence (Q99767 563-664, limits assumed, looked up): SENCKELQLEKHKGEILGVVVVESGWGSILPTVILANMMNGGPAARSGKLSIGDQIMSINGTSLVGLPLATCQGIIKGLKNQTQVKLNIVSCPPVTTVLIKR
# T9: MPP7, Q5T2T1
# T9 sequence (Q5T2T1 134-230, limits assumed, looked up): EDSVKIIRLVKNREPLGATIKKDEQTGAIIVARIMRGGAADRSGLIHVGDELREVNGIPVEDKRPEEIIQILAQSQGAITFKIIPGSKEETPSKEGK
# T10: SNTA1, Q13424
# T10 sequence (Q13424 82-180, limits assumed, looked up): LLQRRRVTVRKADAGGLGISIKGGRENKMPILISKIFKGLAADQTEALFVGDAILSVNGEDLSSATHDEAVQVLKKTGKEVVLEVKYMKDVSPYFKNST
# T11: DVL3, Q92997
# T11 sequence (Q92997 244-331, limits assumed, looked up): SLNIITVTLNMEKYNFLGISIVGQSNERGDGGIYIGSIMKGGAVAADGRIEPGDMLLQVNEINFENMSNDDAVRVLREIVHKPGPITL
# T12: DLG3_1, Q92796
# T12 sequence (Q92796 125-227, limits assumed, looked up): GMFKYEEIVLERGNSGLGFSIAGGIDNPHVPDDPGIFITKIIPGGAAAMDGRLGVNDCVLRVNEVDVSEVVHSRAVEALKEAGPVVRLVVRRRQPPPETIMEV
# T13: APBA3_1, O96018
# T13 sequence (O96018 389-490, limits assumed, looked up): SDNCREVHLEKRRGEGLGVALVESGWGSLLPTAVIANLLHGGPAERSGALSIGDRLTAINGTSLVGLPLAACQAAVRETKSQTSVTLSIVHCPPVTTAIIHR
# How the values were obtained:
# Test in all cases: holdup assay
# Design in all cases: key: below the threshold = too weak to quantify, mostly under pKd 3.1 to 4
# [1] = target: MAGI2_6, Q86UL8
# MAGI2_6, Q86UL8, sequence (Q86UL8 1141-1229): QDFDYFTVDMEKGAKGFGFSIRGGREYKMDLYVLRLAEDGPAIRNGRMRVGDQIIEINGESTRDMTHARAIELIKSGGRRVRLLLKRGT
# [2] = target: T1, PDZD2_2, O15018
# [3] = target: T2, MPP6, Q9NZW5
# [4] = target: GRIP2_6, Q9C0E4
# GRIP2_6, Q9C0E4, sequence (Q9C0E4 648-740): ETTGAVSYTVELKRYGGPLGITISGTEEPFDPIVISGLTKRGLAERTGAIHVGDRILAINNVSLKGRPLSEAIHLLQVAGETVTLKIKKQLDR
# [5] = target: T3, SNTB1, Q13884
# [6] = target: DLG5_1, Q8TDM6
# DLG5_1, Q8TDM6, sequence (Q8TDM6 617-713): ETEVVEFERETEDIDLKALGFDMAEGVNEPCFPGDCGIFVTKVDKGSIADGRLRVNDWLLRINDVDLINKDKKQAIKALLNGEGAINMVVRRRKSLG
# [7] = target: T4, PTPN13_1, Q12923
# [8] = target: SNX27, Q96L92
# [9] = target: PARD3_3, Q8TEW0
# PARD3_3, Q8TEW0, sequence (Q8TEW0 582-685): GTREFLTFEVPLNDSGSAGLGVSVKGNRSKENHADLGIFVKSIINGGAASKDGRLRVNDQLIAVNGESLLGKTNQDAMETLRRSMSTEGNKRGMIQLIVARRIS
# [10] = target: T5, ARHGEF11, O15085
# [11] = target: T6, RAPGEF6, Q8TEU7
# [12] = target: T7, LRRC7, Q96NW7
# [13] = target: FRMPD2_3, Q68DX3
# FRMPD2_3, Q68DX3, sequence (Q68DX3 1073-1166): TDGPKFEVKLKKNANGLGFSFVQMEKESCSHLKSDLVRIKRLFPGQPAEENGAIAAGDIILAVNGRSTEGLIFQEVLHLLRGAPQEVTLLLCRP
# [14] = target: T8, APBA2_1, Q99767
# [15] = target: T9, MPP7, Q5T2T1
# [16] = target: T10, SNTA1, Q13424
# [17] = target: AHNAK1, Q09666
# AHNAK1, Q09666, sequence (Q09666 4-100): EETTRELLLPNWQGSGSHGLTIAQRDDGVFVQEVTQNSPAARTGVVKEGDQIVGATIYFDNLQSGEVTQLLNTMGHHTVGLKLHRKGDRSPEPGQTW
# [18] = target: T11, DVL3, Q92997
# [19] = target: T12, DLG3_1, Q92796
# [20] = target: FRMPD2_1, Q68DX3
# FRMPD2_1, Q68DX3, sequence (Q68DX3 770-861): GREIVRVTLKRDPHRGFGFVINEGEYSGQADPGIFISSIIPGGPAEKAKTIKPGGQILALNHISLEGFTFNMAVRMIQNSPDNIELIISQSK
# [21] = target: T13, APBA3_1, O96018
# [22] = target: IL16_4, Q14005
# IL16_4, Q14005, sequence (Q14005 1229-1329): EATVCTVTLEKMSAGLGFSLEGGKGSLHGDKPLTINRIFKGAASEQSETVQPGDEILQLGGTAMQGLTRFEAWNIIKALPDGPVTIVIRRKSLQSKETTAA
# [23] = target: HTRA2, O43464
# HTRA2, O43464, sequence (O43464 355-458): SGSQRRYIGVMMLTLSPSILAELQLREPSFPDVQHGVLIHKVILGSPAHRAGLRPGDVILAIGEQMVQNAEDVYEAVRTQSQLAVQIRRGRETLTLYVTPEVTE
# [24] = target: LAP2, Q96RT1
# LAP2, Q96RT1, sequence (Q96RT1 other isoform, or with tags, fused parts or gaps): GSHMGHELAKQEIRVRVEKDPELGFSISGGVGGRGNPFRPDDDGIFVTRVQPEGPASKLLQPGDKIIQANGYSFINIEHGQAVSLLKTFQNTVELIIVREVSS
# [25] = target: DLG2_3, Q15700
# [26] = plain residues with an end cap or a label only (N-terminal biotin on a linker: ado-ado)
# [27] = plain residues with an end cap or a label only (N-terminal biotin on a linker: ttds)
# [28] = plain residues with an end cap or a label only (N-terminal biotin on a linker: ahx)
binder,measurement,setting,value
"SVVSERISSV [HTR2C, P28335]",pKd,[1]; [26],4.64
same,pKd,[2]; [26],5.56
same,pKd,[3]; [26],below the threshold
same,pKd,[4]; [26],below the threshold
same,pKd,[5]; [26],4.89
same,pKd,[6]; [26],below the threshold
same,pKd,[7]; [26],below the threshold
same,pKd,[8]; [26],5.06
same,pKd,[9]; [26],below the threshold
same,pKd,[10]; [26],3.84
same,pKd,[11]; [26],below the threshold
same,pKd,[12]; [26],below the threshold
same,pKd,[13]; [26],below the threshold
same,pKd,[14]; [26],below the threshold
same,pKd,[15]; [26],below the threshold
same,pKd,[16]; [26],4.59
same,pKd,[17]; [26],below the threshold
same,pKd,[18]; [26],below the threshold
same,pKd,[19]; [26],below the threshold
same,pKd,[20]; [26],below the threshold
same,pKd,[21]; [26],below the threshold
same,pKd,[22]; [26],below the threshold
same,pKd,[23]; [26],below the threshold
same,pKd,[24]; [26],below the threshold
same,pKd,[25]; [26],3.89
"MERLRVETDV [ARHGEF16, Q5VV41]",pKd,[1]; [27],4.55
same,pKd,[2]; [27],4.33
same,pKd,[3]; [27],below the threshold
same,pKd,[4]; [27],below the threshold
same,pKd,[5]; [27],4.84
same,pKd,[6]; [27],below the threshold
same,pKd,[7]; [27],below the threshold
same,pKd,[8]; [27],4.17
same,pKd,[9]; [27],below the threshold
same,pKd,[10]; [27],4.21
same,pKd,[11]; [27],below the threshold
same,pKd,[12]; [27],3.81
same,pKd,[13]; [27],below the threshold
same,pKd,[14]; [27],below the threshold
same,pKd,[15]; [27],3.54
same,pKd,[16]; [27],4.62
same,pKd,[17]; [27],3.6
same,pKd,[18]; [27],3.65
same,pKd,[19]; [27],4.59
same,pKd,[20]; [27],3.79
same,pKd,[21]; [27],below the threshold
same,pKd,[22]; [27],below the threshold
same,pKd,[23]; [27],below the threshold
same,pKd,[24]; [27],4.39
same,pKd,[25]; [27],4.11
"HIVEALETDV [PBK, Q96KB5]",pKd,[1]; [27],5.35
same,pKd,[2]; [27],4.84
same,pKd,[3]; [27],below the threshold
same,pKd,[4]; [27],below the threshold
same,pKd,[5]; [27],5.29
same,pKd,[6]; [27],below the threshold
same,pKd,[7]; [27],below the threshold
same,pKd,[8]; [27],4.83
same,pKd,[9]; [27],3.76
same,pKd,[10]; [27],4.31
same,pKd,[11]; [27],below the threshold
same,pKd,[12]; [27],3.91
same,pKd,[13]; [27],below the threshold
same,pKd,[14]; [27],below the threshold
same,pKd,[15]; [27],below the threshold
same,pKd,[16]; [27],5.28
same,pKd,[17]; [27],below the threshold
same,pKd,[18]; [27],below the threshold
same,pKd,[19]; [27],4.67
same,pKd,[20]; [27],below the threshold
same,pKd,[21]; [27],below the threshold
same,pKd,[22]; [27],below the threshold
same,pKd,[23]; [27],below the threshold
same,pKd,[24]; [27],5.04
same,pKd,[25]; [27],3.7
"KTSAHHATFV [RGS12, O14924]",pKd,[1]; [28],4.02
same,pKd,[2]; [28],5.04
same,pKd,[3]; [28],below the threshold
same,pKd,[4]; [28],below the threshold
same,pKd,[5]; [28],3.47
same,pKd,[6]; [28],below the threshold
same,pKd,[7]; [28],below the threshold
same,pKd,[8]; [28],4.05
same,pKd,[9]; [28],below the threshold
same,pKd,[10]; [28],3.6
same,pKd,[11]; [28],below the threshold
same,pKd,[12]; [28],3.59
same,pKd,[13]; [28],below the threshold
same,pKd,[14]; [28],below the threshold
same,pKd,[15]; [28],below the threshold
same,pKd,[16]; [28],3.63
same,pKd,[17]; [28],below the threshold
same,pKd,[18]; [28],3.56
same,pKd,[19]; [28],below the threshold
same,pKd,[20]; [28],below the threshold
same,pKd,[21]; [28],below the threshold
same,pKd,[22]; [28],below the threshold
same,pKd,[23]; [28],3.93
same,pKd,[24]; [28],4.34
same,pKd,[25]; [28],3.47
"IQREDQETAV [DGKZ, Q13574]",pKd,[1]; [27],4.63
same,pKd,[2]; [27],5.1
same,pKd,[3]; [27],below the threshold
same,pKd,[4]; [27],below the threshold
same,pKd,[5]; [27],5.29
same,pKd,[6]; [27],below the threshold
same,pKd,[7]; [27],below the threshold
same,pKd,[8]; [27],6
same,pKd,[9]; [27],below the threshold
same,pKd,[10]; [27],4.47
same,pKd,[11]; [27],below the threshold
same,pKd,[12]; [27],below the threshold
same,pKd,[13]; [27],3.71
same,pKd,[14]; [27],below the threshold
same,pKd,[15]; [27],below the threshold
same,pKd,[16]; [27],5.37
same,pKd,[17]; [27],below the threshold
same,pKd,[18]; [27],below the threshold
same,pKd,[19]; [27],4.26
same,pKd,[20]; [27],below the threshold
same,pKd,[21]; [27],below the threshold
same,pKd,[22]; [27],below the threshold
same,pKd,[23]; [27],below the threshold
same,pKd,[24]; [27],4.54
same,pKd,[25]; [27],4.38
"EKLSSIESDV [GRIN2B, Q13224]",pKd,[1]; [28],4.65
same,pKd,[2]; [28],4.82
same,pKd,[3]; [28],below the threshold
same,pKd,[4]; [28],below the threshold
same,pKd,[5]; [28],4.46
same,pKd,[6]; [28],below the threshold
same,pKd,[7]; [28],below the threshold
same,pKd,[8]; [28],3.87
same,pKd,[9]; [28],below the threshold
same,pKd,[10]; [28],3.56
same,pKd,[11]; [28],below the threshold
same,pKd,[12]; [28],3.63
same,pKd,[13]; [28],below the threshold
same,pKd,[14]; [28],3.53
same,pKd,[15]; [28],below the threshold
same,pKd,[16]; [28],4.39
same,pKd,[17]; [28],below the threshold
same,pKd,[18]; [28],below the threshold
same,pKd,[19]; [28],4.15
same,pKd,[20]; [28],below the threshold
same,pKd,[21]; [28],below the threshold
same,pKd,[22]; [28],below the threshold
same,pKd,[23]; [28],below the threshold
same,pKd,[24]; [28],4.26
same,pKd,[25]; [28],4.56
